# Laboratory results from IntAct's records for PubMed 26836588.
# B1: E3 ubiquitin-protein ligase TRIM22 (Homo sapiens), Q8IYM9 (parent)
# chain: MDFSVKVDIEKEVTCPICLELLTEPLSLDCGHSFCQACITAKIKESVIISRGESSCPVCQTRFQPGNLRPNRHLANIVERVKEVKMSPQEGQKRDVCEHHGKKLQIFCKEDGKVICWVCELSQEHQGHQTFRINEVVKECQEKLQVALQRLIKEDQEAEKLEDDIRQERTAWKNYIQIERQKILKGFNEMRVILDNEEQRELQKLEEGEVNVLDNLAAATDQLVQQRQDASTLISDLQRRLRGSSVEMLQDVIDVMKRSESWTLKKPKSVSKKLKSVFRVPDLSGMLQVLKELTDVQYYWVDVMLNPGSATSNVAISVDQRQVKTVRTCTFKNSNPCDFSAFGVFGCQYFSSGKYYWEVDVSGKIAWILGVHSKISSLNKRKSSGFAFDPSVNYSKVYSRYRPQYGYWVIGLQNTCEYNAFEDSSSSDPKVLTLFMAVPPCRIGVFLDYEAGIVSFFNVTNHGALIYKFSGCRFSRPAYPYFNPWNCLVPMTVCPPSS
# Variants of: B1
# Conditions: with nod2_human NOD2, Q9HC29
# Sequence of nod2_human NOD2, Q9HC29 (Q9HC29 whole entry): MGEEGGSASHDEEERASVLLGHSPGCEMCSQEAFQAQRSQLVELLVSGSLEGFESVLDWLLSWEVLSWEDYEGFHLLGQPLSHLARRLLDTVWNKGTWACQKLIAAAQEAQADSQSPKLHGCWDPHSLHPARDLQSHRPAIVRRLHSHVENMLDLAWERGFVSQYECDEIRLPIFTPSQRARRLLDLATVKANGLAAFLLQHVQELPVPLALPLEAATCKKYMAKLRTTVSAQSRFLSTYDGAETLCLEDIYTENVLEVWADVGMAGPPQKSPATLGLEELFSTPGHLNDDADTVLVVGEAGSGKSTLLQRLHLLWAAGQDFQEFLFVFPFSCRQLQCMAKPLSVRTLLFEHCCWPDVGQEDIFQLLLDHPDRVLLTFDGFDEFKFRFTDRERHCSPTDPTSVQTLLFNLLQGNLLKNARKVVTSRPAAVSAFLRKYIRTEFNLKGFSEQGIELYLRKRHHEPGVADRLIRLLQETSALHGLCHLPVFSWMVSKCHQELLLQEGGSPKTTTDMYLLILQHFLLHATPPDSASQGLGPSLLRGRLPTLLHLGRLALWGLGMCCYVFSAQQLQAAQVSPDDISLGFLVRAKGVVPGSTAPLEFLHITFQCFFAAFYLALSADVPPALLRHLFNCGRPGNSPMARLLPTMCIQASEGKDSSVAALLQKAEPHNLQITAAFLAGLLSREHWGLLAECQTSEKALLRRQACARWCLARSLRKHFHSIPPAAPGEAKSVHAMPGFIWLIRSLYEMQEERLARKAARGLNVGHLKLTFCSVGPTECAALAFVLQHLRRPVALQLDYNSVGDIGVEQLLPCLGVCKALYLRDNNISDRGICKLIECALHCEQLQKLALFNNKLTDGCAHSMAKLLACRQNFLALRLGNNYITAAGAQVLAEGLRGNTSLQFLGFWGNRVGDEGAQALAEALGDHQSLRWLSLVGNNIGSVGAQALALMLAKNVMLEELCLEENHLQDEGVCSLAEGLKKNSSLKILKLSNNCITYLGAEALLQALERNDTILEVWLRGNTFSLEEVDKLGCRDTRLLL
row,effect of a mutation on the interaction,Variant
1,disrupting interaction strength,MDFSVKVDIEKEVTCPICLELLTEPLSLDCGHSFCQACITAKIKESVIISRGESSCPVCQTRFQPGNLRPNRHLANIVERVKEVKMSPQEGQKRDVCEHHGKKLQIFCKEDGKVICWVCELSQEHQGHQTFRINEVVKECQEKLQVALQRLIKEDQEAEKLEDDIRQERTAWKNYIQIERQKILKGFNEMRVILDNEEQRELQKLEEGEVNVLDNLAAATDQLVQQRQDASTLISDLQRRLRGSSVEMLQDVIDVMKRSESWTLKKPKSVSKKLKSVFRVPDLSGMLQVLKELTDVQYYWVDVMLNPGSATSNVAISVDQRQVKTVRTCTFKNSNPCDFSAFGVFGCQYFSSGKYYWEVDVSGKIAWILGVHSKISSLNKRKSSGFAFDPSVNYSKVYSRYRPQYGYWVIGLQNTCEYNAFEDSSSSDPKVLTLFMAVPPCCIGVFLDYEAGIVSFFNVTNHGALIYKFSGCRFSRPAYPYFNPWNCLVPMTVCPPSS [R442C]
2,decreasing interaction strength,MDFSVKVDIEKEVTCPICLELLTEPLSLDCGHSFCQACITAKIKESVIISRGESSCPVCQTRFQPGNLRPNRHLANIVERVKEVKMSPQEGQKRDVCEHHGKKLQIFCKEDGKVICWVCELSQEHQGHQTFRINEVVKECQEKLQVALQRLIKEDQEAEKLEDDIRQERTAWKNYIQIERQKILKGFNEMRVILDNEEQRELQKLEEGEVNVLDNLAAATDQLVQQRQDASTLISDLQRRLRGSSVEMLQDVIDVMKRSESWTLKKPKSVSKKLKSVFRVPDLSGMLQVLKELTDVQYYWVDVMLNPGSATSNVAISVDQKQVKTVRTCTFKNSNPCDFSAFGVFGCQYFSSGKYYWEVDVSGKIAWILGVHSKISSLNKRKSSGFAFDPSVNYSKVYSRYRPQYGYWVIGLQNTCEYNAFEDSSSSDPKVLTLFMAVPPCRIGVFLDYEAGIVSFFNVTNHGALIYKFSGCRFSRPAYPYFNPWNCLVPMTVCPPSS [R321K]
3,decreasing interaction strength,MDFSVKVDIEKEVTCPICLELLTEPLSLDCGHSFCQACITAKIKESVIISRGESSCPVCQTRFQPGNLRPNRHLANIVERVKEVKMSPQEGQKRDVCEHHGKKLQIFCKEDGKVICWVCELSQEHQGHQTFRINEVVKECQEKLQVALQRLIKEDQEAEKLEDDIRQERTAWKNYIQIERQKILKGFNEMRVILDNEEQRELQKLEEGEVNVLDNLAAATDQLVQQRQDASTLISDLQRRLRGLSVEMLQDVIDVMKRSESWTLKKPKSVSKKLKSVFRVPDLSGMLQVLKELTDVQYYWVDVMLNPGSATSNVAISVDQRQVKTVRTCTFKNSNPCDFSAFGVFGCQYFSSGKYYWEVDVSGKIAWILGVHSKISSLNKRKSSGFAFDPSVNYSKVYSRYRPQYGYWVIGLQNTCEYNAFEDSSSSDPKVLTLFMAVPPCRIGVFLDYEAGIVSFFNVTNHGALIYKFSGCRFSRPAYPYFNPWNCLVPMTVCPPSS [S244L]
4,with no effect,MDFSVKVDIEKEVTCPICLELLTEPLSLDCGHSFCQACITAKIKESVIISRGESSCPVCQTRFQPGNLRPNRHLANIVERVKEVKMSPQEGQKRDVCEHHGKKLQIFCKEDGKVICWVCELSQEHQGHQTFRINEVVKECQEKLQVALQTLIKEDQEAEKLEDDIRQERTAWKNYIQIERQKILKGFNEMRVILDNEEQRELQKLEEGEVNVLDNLAAATDQLVQQRQDASTLISDLQRRLRGSSVEMLQDVIDVMKRSESWTLKKPKSVSKKLKSVFRVPDLSGMLQVLKELTDVQYYWVDVMLNPGSATSNVAISVDQRQVKTVRTCTFKNSNPCDFSAFGVFGCQYFSSGKYYWEVDVSGKIAWILGVHSKISSLNKRKSSGFAFDPSVNYSKVYSRYRPQYGYWVIGLQNTCEYNAFEDSSSSDPKVLTLFMAVPPCRIGVFLDYEAGIVSFFNVTNHGALIYKFSGCRFSRPAYPYFNPWNCLVPMTVCPPSS [R150T]
